Test results as given in paper PMC10786891, “Massively parallel profiling of RNA-targeting CRISPR-Cas13d”.

T1: EsCas13d, nuclease-dead (Eubacterium siraeum, UniProt B0MS50, R295A;H300A;R849A;H854A)
T1 sequence: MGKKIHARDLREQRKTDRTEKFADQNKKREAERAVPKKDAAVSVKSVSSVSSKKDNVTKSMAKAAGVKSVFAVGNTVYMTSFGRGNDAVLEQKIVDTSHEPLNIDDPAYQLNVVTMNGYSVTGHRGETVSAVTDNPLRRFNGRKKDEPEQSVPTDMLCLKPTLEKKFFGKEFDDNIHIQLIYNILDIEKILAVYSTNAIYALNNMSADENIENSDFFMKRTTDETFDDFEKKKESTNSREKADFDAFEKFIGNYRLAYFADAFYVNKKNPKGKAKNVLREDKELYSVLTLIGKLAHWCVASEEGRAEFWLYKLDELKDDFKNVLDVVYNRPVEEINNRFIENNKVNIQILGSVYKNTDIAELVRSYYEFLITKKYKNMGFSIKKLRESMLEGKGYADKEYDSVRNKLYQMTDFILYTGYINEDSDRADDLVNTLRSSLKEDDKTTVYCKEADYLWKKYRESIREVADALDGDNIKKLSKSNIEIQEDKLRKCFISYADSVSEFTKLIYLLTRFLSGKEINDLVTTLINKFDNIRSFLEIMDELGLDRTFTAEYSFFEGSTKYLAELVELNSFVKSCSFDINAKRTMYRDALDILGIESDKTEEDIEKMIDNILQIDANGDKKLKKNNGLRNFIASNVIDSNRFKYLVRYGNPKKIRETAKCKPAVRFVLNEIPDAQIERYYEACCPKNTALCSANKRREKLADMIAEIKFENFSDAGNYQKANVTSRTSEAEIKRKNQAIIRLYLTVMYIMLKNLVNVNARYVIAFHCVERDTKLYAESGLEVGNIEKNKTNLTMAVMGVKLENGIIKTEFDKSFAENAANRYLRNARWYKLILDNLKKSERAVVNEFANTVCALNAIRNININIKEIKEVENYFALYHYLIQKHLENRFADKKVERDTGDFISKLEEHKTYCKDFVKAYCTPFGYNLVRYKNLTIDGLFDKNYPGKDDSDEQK


Target: T1, EsCas13d, nuclease-dead
Assay: crRNA (strand 1, pre-loaded); Mg2+; 40 mM Tris-HCl pH 7.5, 150 mM NaCl, 6 mM MgCl2, 1 mM DTT, 0.1% Tween-20, 0.2 mg/ml BSA; 25 C; 10 min per concentration, then washed
Conditions: tags: His6-TwinStrep-SUMO cleaved; N-terminal SNAP kept (SNAP-Surface 488); label: 3' end held by stalled T7 RNA polymerase

Binder | Kd [µM]
target 1 insU 3' of 20,insU 3' of 5 (mixed) RNA 1: CACCCGUGCAAAAAUGCAGGGGUCUAAAACUGAGCGGAUAACCUCUCUAUGG RNA 2: GGGAAUGGAUCCACAUCUACGAAUUCGUACCAUUAGAGAGGUUAUCCGUCUCACCGAGAUCGGAAGAGCACACGU | 0.024 ± 0.004
target 1 C6U,U10C (mixed) RNA 1: CACCCGUGCAAAAAUGCAGGGGUCUAAAACUGAGCGGAUAACCUCUCUAUGG RNA 2: GGGAAUGGAUCCACAUCUACGAAUUCGUACCAUAGAGAGGUCAUCUGCUCACCGAGAUCGGAAGAGCACACGU | 0.0197 ± 0.0008
target 1 insG 3' of 11,insA 3' of 8 (mixed) RNA 1: CACCCGUGCAAAAAUGCAGGGGUCUAAAACUGAGCGGAUAACCUCUCUAUGG RNA 2: GGGAAUGGAUCCACAUCUACGAAUUCGUACCAUAGAGAGGUGUAUACCGCUCACCGAGAUCGGAAGAGCACACGU | 0.0405 ± 0.0025
target 1 C7G,A16U (mixed) RNA 1: CACCCGUGCAAAAAUGCAGGGGUCUAAAACUGAGCGGAUAACCUCUCUAUGG RNA 2: GGGAAUGGAUCCACAUCUACGAAUUCGUACCAUAGUGAGGUUAUGCGCUCACCGAGAUCGGAAGAGCACACGU | 0.053 ± 0.004
target 1 insC 3' of 16,insG 3' of 6 (mixed) RNA 1: CACCCGUGCAAAAAUGCAGGGGUCUAAAACUGAGCGGAUAACCUCUCUAUGG RNA 2: GGGAAUGGAUCCACAUCUACGAAUUCGUACCAUAGACGAGGUUAUCCGGCUCACCGAGAUCGGAAGAGCACACGU | ~0.1
target 1 complement block 2-12 (mixed) RNA 1: CACCCGUGCAAAAAUGCAGGGGUCUAAAACUGAGCGGAUAACCUCUCUAUGG RNA 2: GGGAAUGGAUCCACAUCUACGAAUUCGUACCAUAGAGAGCAAUAGGCGAGACCGAGAUCGGAAGAGCACACGU | 0.0234 ± 0.0016
target 1 G12A,G17A (mixed) RNA 1: CACCCGUGCAAAAAUGCAGGGGUCUAAAACUGAGCGGAUAACCUCUCUAUGG RNA 2: GGGAAUGGAUCCACAUCUACGAAUUCGUACCAUAAAGAGAUUAUCCGCUCACCGAGAUCGGAAGAGCACACGU | 0.0308 ± 0.0032
target 1 complement block 3-6 (mixed) RNA 1: CACCCGUGCAAAAAUGCAGGGGUCUAAAACUGAGCGGAUAACCUCUCUAUGG RNA 2: GGGAAUGGAUCCACAUCUACGAAUUCGUACCAUAGAGAGGUUAUCGCGACACCGAGAUCGGAAGAGCACACGU | 0.00584 ± 0.0003
target 1 insA 3' of 21,insG 3' of 18 (mixed) RNA 1: CACCCGUGCAAAAAUGCAGGGGUCUAAAACUGAGCGGAUAACCUCUCUAUGG RNA 2: GGGAAUGGAUCCACAUCUACGAAUUCGUACCAAUAGGAGAGGUUAUCCGCUCACCGAGAUCGGAAGAGCACACGU | 0.077 ± 0.02
target 1 insC 3' of 15,insG 3' of 2 (mixed) RNA 1: CACCCGUGCAAAAAUGCAGGGGUCUAAAACUGAGCGGAUAACCUCUCUAUGG RNA 2: GGGAAUGGAUCCACAUCUACGAAUUCGUACCAUAGAGCAGGUUAUCCGCUCGACCGAGAUCGGAAGAGCACACGU | 0.0179 ± 0.0013
target 1 A1G,C21A (mixed) RNA 1: CACCCGUGCAAAAAUGCAGGGGUCUAAAACUGAGCGGAUAACCUCUCUAUGG RNA 2: GGGAAUGGAUCCACAUCUACGAAUUCGUACAAUAGAGAGGUUAUCCGCUCGCCGAGAUCGGAAGAGCACACGU | 0.027 ± 0.004
target 1 insU 3' of 13,insG 3' of 10 (mixed) RNA 1: CACCCGUGCAAAAAUGCAGGGGUCUAAAACUGAGCGGAUAACCUCUCUAUGG RNA 2: GGGAAUGGAUCCACAUCUACGAAUUCGUACCAUAGAGAGUGUUGAUCCGCUCACCGAGAUCGGAAGAGCACACGU | 0.063 ± 0.023
target 1 complement block 1-12 (mixed) RNA 1: CACCCGUGCAAAAAUGCAGGGGUCUAAAACUGAGCGGAUAACCUCUCUAUGG RNA 2: GGGAAUGGAUCCACAUCUACGAAUUCGUACCAUAGAGAGCAAUAGGCGAGUCCGAGAUCGGAAGAGCACACGU | 0.0196 ± 0.001
target 1 C2U,U3C (mixed) RNA 1: CACCCGUGCAAAAAUGCAGGGGUCUAAAACUGAGCGGAUAACCUCUCUAUGG RNA 2: GGGAAUGGAUCCACAUCUACGAAUUCGUACCAUAGAGAGGUUAUCCGCCUACCGAGAUCGGAAGAGCACACGU | 0.0166 ± 0.0017
target 1 insC 3' of 3,insA 3' of 2 (mixed) RNA 1: CACCCGUGCAAAAAUGCAGGGGUCUAAAACUGAGCGGAUAACCUCUCUAUGG RNA 2: GGGAAUGGAUCCACAUCUACGAAUUCGUACCAUAGAGAGGUUAUCCGCUCCAACCGAGAUCGGAAGAGCACACGU | 0.0136 ± 0.0012
target 1 C2G,G13U (mixed) RNA 1: CACCCGUGCAAAAAUGCAGGGGUCUAAAACUGAGCGGAUAACCUCUCUAUGG RNA 2: GGGAAUGGAUCCACAUCUACGAAUUCGUACCAUAGAGAUGUUAUCCGCUGACCGAGAUCGGAAGAGCACACGU | ~0.06
target 1 C6G,U10A (mixed) RNA 1: CACCCGUGCAAAAAUGCAGGGGUCUAAAACUGAGCGGAUAACCUCUCUAUGG RNA 2: GGGAAUGGAUCCACAUCUACGAAUUCGUACCAUAGAGAGGUAAUCGGCUCACCGAGAUCGGAAGAGCACACGU | 0.0086 ± 0.0006
target 1 A1U,C21A (mixed) RNA 1: CACCCGUGCAAAAAUGCAGGGGUCUAAAACUGAGCGGAUAACCUCUCUAUGG RNA 2: GGGAAUGGAUCCACAUCUACGAAUUCGUACAAUAGAGAGGUUAUCCGCUCUCCGAGAUCGGAAGAGCACACGU | 0.0253 ± 0.0031
target 1 C2A,C6U (mixed) RNA 1: CACCCGUGCAAAAAUGCAGGGGUCUAAAACUGAGCGGAUAACCUCUCUAUGG RNA 2: GGGAAUGGAUCCACAUCUACGAAUUCGUACCAUAGAGAGGUUAUCUGCUAACCGAGAUCGGAAGAGCACACGU | 0.00588 ± 0.00027
target 1 A9G,G13U (mixed) RNA 1: CACCCGUGCAAAAAUGCAGGGGUCUAAAACUGAGCGGAUAACCUCUCUAUGG RNA 2: GGGAAUGGAUCCACAUCUACGAAUUCGUACCAUAGAGAUGUUGUCCGCUCACCGAGAUCGGAAGAGCACACGU | 0.053 ± 0.006
target 1 G13A,U19G (mixed) RNA 1: CACCCGUGCAAAAAUGCAGGGGUCUAAAACUGAGCGGAUAACCUCUCUAUGG RNA 2: GGGAAUGGAUCCACAUCUACGAAUUCGUACCAGAGAGAAGUUAUCCGCUCACCGAGAUCGGAAGAGCACACGU | 0.08 ± 0.04
target 1 C4G,U8A (mixed) RNA 1: CACCCGUGCAAAAAUGCAGGGGUCUAAAACUGAGCGGAUAACCUCUCUAUGG RNA 2: GGGAAUGGAUCCACAUCUACGAAUUCGUACCAUAGAGAGGUUAACCGGUCACCGAGAUCGGAAGAGCACACGU | 0.0074 ± 0.0004
target 1 insC 3' of 20,insA 3' of 7 (mixed) RNA 1: CACCCGUGCAAAAAUGCAGGGGUCUAAAACUGAGCGGAUAACCUCUCUAUGG RNA 2: GGGAAUGGAUCCACAUCUACGAAUUCGUACCACUAGAGAGGUUAUCACGCUCACCGAGAUCGGAAGAGCACACGU | 0.00749 ± 0.00035
target 1 insA 3' of 15,insA 3' of 13 (mixed) RNA 1: CACCCGUGCAAAAAUGCAGGGGUCUAAAACUGAGCGGAUAACCUCUCUAUGG RNA 2: GGGAAUGGAUCCACAUCUACGAAUUCGUACCAUAGAGAAGAGUUAUCCGCUCACCGAGAUCGGAAGAGCACACGU | 0.00563 ± 0.00028
target 1 insG 3' of 22,insC 3' of 13 (mixed) RNA 1: CACCCGUGCAAAAAUGCAGGGGUCUAAAACUGAGCGGAUAACCUCUCUAUGG RNA 2: GGGAAUGGAUCCACAUCUACGAAUUCGUACGCAUAGAGAGCGUUAUCCGCUCACCGAGAUCGGAAGAGCACACGU | 0.044 ± 0.006
target 1 insG 3' of 18,insG 3' of 4 (mixed) RNA 1: CACCCGUGCAAAAAUGCAGGGGUCUAAAACUGAGCGGAUAACCUCUCUAUGG RNA 2: GGGAAUGGAUCCACAUCUACGAAUUCGUACCAUAGGAGAGGUUAUCCGCGUCACCGAGAUCGGAAGAGCACACGU | 0.0375 ± 0.0031
target 1 insG 3' of 9,insG 3' of 8 (mixed) RNA 1: CACCCGUGCAAAAAUGCAGGGGUCUAAAACUGAGCGGAUAACCUCUCUAUGG RNA 2: GGGAAUGGAUCCACAUCUACGAAUUCGUACCAUAGAGAGGUUAGUGCCGCUCACCGAGAUCGGAAGAGCACACGU | 0.0172 ± 0.0013
target 1 C7A,A9U (mixed) RNA 1: CACCCGUGCAAAAAUGCAGGGGUCUAAAACUGAGCGGAUAACCUCUCUAUGG RNA 2: GGGAAUGGAUCCACAUCUACGAAUUCGUACCAUAGAGAGGUUUUACGCUCACCGAGAUCGGAAGAGCACACGU | 0.0075 ± 0.0004
